Results as given in IntAct's records for PubMed 22916205.

B1: "Na(+)/H(+) exchange regulatory cofactor-like protein nrfl-1" (Caenorhabditis elegans), G5EDM4-1 (parent)
chain: MVHIPSDVTPPRLCVVEKLNGENEYGYNLHAEKGRGQFVGTVDPDSPAERGGLITGDRIFAVNGHSIIGENHKKVVERIKANPNRCEMLVISEEGAKWYNENNVQITLDLPNIERVSPMSKETPVFVPPPPPPTDAMPYLPRLAELNKGTPDQEFGFNLHAERGRGHFIGTVDAGGIGEKAGLEAGQRIVGVNGQLIYPTTGHKEVVALIKKDTMKTTLLVASEDVDKYHKDHNIAYSWDNVERVDTRPVINVETHHHHEEVSVPKSNGYDVPPLNPHSIQVNEEREISKMTTTTRTETITNSNSAYQYKESSTAYDAYATPPVDSNDLMDEVFGRVNLPGVTMSSHTEVLPPTDDISSVSSLSSHRESAVDVPVSHQYVPSYATESHQKHEQHSQTHHHHHQHQQPSPLSNGSSHGYAASSTSGYDDDDIYHLSAREARERLRMKNRKHHLHEMSLNEKYQLVSNM
partner: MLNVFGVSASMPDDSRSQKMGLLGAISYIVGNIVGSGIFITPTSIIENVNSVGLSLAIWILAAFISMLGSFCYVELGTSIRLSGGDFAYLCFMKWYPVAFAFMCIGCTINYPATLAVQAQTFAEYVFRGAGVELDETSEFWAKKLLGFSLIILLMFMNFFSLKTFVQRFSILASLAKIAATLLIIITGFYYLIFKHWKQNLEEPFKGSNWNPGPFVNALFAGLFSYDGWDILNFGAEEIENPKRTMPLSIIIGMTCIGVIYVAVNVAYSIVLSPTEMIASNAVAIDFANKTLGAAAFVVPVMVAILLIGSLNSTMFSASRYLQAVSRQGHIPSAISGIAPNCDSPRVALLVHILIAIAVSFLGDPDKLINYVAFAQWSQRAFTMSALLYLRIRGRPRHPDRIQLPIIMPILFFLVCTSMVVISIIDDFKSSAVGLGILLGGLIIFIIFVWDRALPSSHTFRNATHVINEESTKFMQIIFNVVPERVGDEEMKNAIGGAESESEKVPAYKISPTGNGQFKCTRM

Variants of: B1
Conditions: with aat6_caeel aat-6, Q22397

effect of a mutation on the interaction | Variant
disrupting interaction strength | G26A;Y27A;E154A;F155A
decreasing interaction strength | E154A;F155A
with no effect | G26A;Y27A
